The record followed here is PMC8153730 (Science Advances, 2021).

For assay [1], the target named is recombinant His BRD4 (1-477aa) (UniProt O60885 1-477). The assay can be described thus: ELISA.
Assay [2] concerns the target His-Sumo BRD4 (1-477aa) wild type, not methylated (UniProt O60885 1-477). The assay can be described thus: ELISA.

B1: recombinant glutathione S-transferase (GST) SETD6 (enzyme)
chain: MATQAKRPRVAGPVDGGDLDPVACFLSWCRRVGLELSPKVSERAGGRRTRGGARAALTSPPAQVAVSRQGTVAGYGMVARESVQAGELLFVVPRAALLSQHTCSIGGLLERERVALQSQSGWVPLLLALLHELQAPASRWRPYFALWPELGRLEHPMFWPEEERRCLLQGTGVPEAVEKDLANIRSEYQSIVLPFMEAHPDLFSLRVRSLELYHQLVALVMAYSFQEPLEEEEDEKEPNSPVMVPAADILNHLANHNANLEYSANCLRMVATQPIPKGHEIFNTYGQMANWQLIHMYGFVEPYPDNTDDTADIQMVTVREAALQGTKTEAERHLVYERWDFLCKLEMVGEEGAFVIGREEVLTEEELTTTLKVLCMPAEEFRELKDQDGGGDDKREEGSLTITNIPKLKASWRQLLQNSVLLTLQTYATDLKTDQGLLSNKEVYAKLSWREQQALQVRYGQKMILHQLLELTS
In the case of B1, the binding result in assay [1] is recorded as “binds”.

B2: His E2F1 (natural protein)
chain: not shown
With B2, the binding result in assay [2] is recorded as “binds”.
